The target of this assay is 35S-labeled mRNA-peptide fusion prepared from mRNA 1 crosslinked to linker B, encoding the Flag and Strep-Tag II epitope. Kind of assay: precipitation of 35S-labeled fusion on affinity resin, wash, scintillation counting.

For “Anti-Flag M2 Affinity Gel (Sigma, MO) (antibody)”, the fusion binding (percent bound) turned out to be 54%.
StrepTactin Sepharose (Genosys, Tex.) displayed a fusion binding (percent bound) of 62%.
